Measurements reported in patent publication US20190100588A1 (VISTERRA, published 2019).
Where a chain is given by its changes, count along the chain named. Each block holds one binder with its values, some of them ahead of it.

Tests used:
[1] = target: T1, recombinant CD138 extracellular domain (soluble CD138) (human, UniProt P18827 23-250); assay: ELISA (FIG. 18A)
T1 construct: also called soluble CD138 extracellular domain; biotinylated CD138
T1 sequence: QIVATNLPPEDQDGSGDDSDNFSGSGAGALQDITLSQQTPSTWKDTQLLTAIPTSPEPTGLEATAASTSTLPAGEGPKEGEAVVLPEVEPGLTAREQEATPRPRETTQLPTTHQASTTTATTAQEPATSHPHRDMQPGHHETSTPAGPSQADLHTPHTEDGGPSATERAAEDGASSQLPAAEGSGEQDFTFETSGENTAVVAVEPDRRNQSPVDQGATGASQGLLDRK

Peptide 2a [2] = target: T2, Peptide 2a (human); assay: ELISA (FIG. 18B)
T2 construct: also called Pep2a
T2 peptide: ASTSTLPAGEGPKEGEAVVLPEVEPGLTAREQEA

Pep6 [3] = target: T3, Pep6 (human); assay: ELISA (FIG. 18C)
T3 construct: also called Peptide 6; Peptide-6
T3 peptide: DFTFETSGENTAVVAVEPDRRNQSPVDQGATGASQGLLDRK

[4] = target: T4, cell surface CD138 (human CD138) (human, UniProt P18827 23-310); assay: flow cytometry, U266 cells, afucosylated antibody
T4 construct: whole, on cells; also called membrane CD138
T4 sequence (looked up): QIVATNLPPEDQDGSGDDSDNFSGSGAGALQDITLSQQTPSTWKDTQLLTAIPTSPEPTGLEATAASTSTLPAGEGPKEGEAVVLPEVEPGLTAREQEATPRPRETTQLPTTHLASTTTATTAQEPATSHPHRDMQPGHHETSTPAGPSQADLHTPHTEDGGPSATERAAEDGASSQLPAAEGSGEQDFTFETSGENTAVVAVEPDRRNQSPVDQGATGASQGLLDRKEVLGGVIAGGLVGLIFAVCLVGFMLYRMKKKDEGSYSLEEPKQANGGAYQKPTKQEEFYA
Protocol: (§1) Binding of anti-CD138 antibodies to CD138 was tested by flow cytometry binding assay. Multiple myeloma cell lines RPMI 8226 (ATCC) and U266 (ATCC) were grown in RPMI1640 with 10% FBS. On the day of experiment, 0.25×10⁶ cells were washed with FACS buffer (PBS+0.5% BSA) and incubated with dilution series of anti-CD138 antibodies (starting 10 ug/ml) or hybridoma supernatants (starting with undiluted supernatant) for 30 min at 4° C. followed by incubation with goat-anti-human/mouse conjugated APC antibodies (BioLegend) for 30 min at 4° C. Fluorescence was detected using flow cytometer.
The afucosylated antibody variants were then tested for capacity to induce ADCC, as described above.

[5] = target: T4, cell surface CD138 (human CD138); assay: form of CD138 not named
Pep4 = target: T5, Pep4 (human); assay: ELISA, coated peptide
T5 construct: also called Peptide 4
T5 peptide: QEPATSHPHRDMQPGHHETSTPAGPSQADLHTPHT

Pep5 = target: T6, Pep5 (human); assay: ELISA, coated peptide
T6 construct: also called Peptide 5
T6 peptide: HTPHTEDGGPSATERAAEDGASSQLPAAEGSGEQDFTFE

Pep6 [6] = target: T3, Pep6; assay: ELISA, coated peptide
Pep3 = target: T7, Pep3 (human); assay: ELISA, coated peptide
T7 construct: also called Peptide 3
T7 peptide: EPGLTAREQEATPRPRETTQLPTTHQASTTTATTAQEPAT

[7] = target: T8, rCD138 (recombinant CD138) (human, UniProt P18827 23-254, limits assumed); assay: ELISA, coated rCD138
T8 sequence (looked up): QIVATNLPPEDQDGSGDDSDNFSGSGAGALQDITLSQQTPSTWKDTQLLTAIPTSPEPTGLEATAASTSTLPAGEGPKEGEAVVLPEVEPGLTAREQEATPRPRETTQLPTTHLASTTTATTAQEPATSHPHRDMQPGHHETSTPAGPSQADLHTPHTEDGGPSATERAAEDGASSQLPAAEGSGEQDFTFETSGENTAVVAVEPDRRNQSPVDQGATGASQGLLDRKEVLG

[8] = target: T4, cell surface CD138 (human CD138); assay: flow cytometry, RPMI 8226 cells
Protocol: as §1

[9] = target: T4, cell surface CD138 (human CD138); assay: flow cytometry, U266 cells
Protocol: as §1

Pep6 [10] = target: T3, Pep6; assay: peptide binding ELISA
Protocol: (§2) As above, the monoclonal antibodies were tested for binding to a series of CD138 peptides in four-fold serial dilutions starting at 1 μg/mL. […] HRP-conjugated anti-human IgG-Fc antibody (1:5000 dilution) was used for detection. Antibody B-B4 was also tested as a reference. […] Reference antibody B-B4 only bound to Peptide 2a.

Peptide 2a [11] = target: T2, Peptide 2a; assay: peptide binding ELISA
Protocol: as §2

B5: antibody 617 (antibody, V domains shown)
VH: QVQLQLPGAELVKPGASVKVSCKASAYTFTSYWMHWVKQRPGQGLEWIGRIHPSDSDTNYNQNFKGKATLTVDKSSNTAYMQLSSLTSEDSAVYYCATGFSFWGQGTLVTVSA
VL: DIVMTQSHKFMSTSVGDRVSITCKASQDVSTTVAWYQQKPGQSPKLLIYSASYRYTGVPDRFTGSGSGTDFTFTISSVQAEDLAVYYCQQHYSTRPTFGGGTKLEIK
notes: Mouse hybridoma-derived anti-CD138 antibody
ELISA O.D. (Pep4): 0.091 O.D.
ELISA O.D. (Pep5): 0.066 O.D.
ELISA O.D. (Pep6 [6]): 0.809 O.D.

B6: antibody 603 (antibody, V domains shown)
VH: B5 VH with L4V, L6V, A26G, V37M, Q39K, N77S, Y95F
VL: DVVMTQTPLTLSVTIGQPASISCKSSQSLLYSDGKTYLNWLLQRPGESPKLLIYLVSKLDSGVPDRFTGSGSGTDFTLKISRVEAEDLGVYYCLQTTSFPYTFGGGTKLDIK
notes: as for B5
ELISA O.D. (Pep4): 0.051 O.D.
ELISA O.D. (Pep5): 0.053 O.D.
ELISA O.D. (Pep6 [6]): 0.863 O.D.
ELISA O.D. (Pep3): 0.047 O.D.
ELISA O.D. [7]: 0.585 O.D.
% cells Positive [8]: 81.4%
% cells Positive [9]: 95.8%

B8: antibody 619 (antibody, V domains shown)
VH: QIQLVQSGPELKKPGETVKISCKASGYTFTTYGMSWVKQAPGKGLKWMGWINTYSGVPTYADDFKGRFAFSLETSASTAYLQINNLKNEDTATYFCAREGSTMVTRYYFDYWGQGTTLTVSS
VL: DIVMTQAAPSVPVTPGESVSISCRSSKSLLHSNGNTYLYWFLQRPGQSPQVLIYRMSNLASGVPDRFSGSGSGTAFTLRISRVEAEDVGVYYCMQHLESPYTFGGGTKLEIK
notes: as for B5
ELISA O.D. (Pep4): 0.066 O.D.
ELISA O.D. (Pep5): 0.066 O.D.
ELISA O.D. (Pep6 [6]): 1.37 O.D.
ELISA O.D. (Pep3): 0.067 O.D.
ELISA O.D. [7]: 0.882 O.D.
% cells Positive [8]: 85%
% cells Positive [9]: 3.7%

B9: antibody 616 (antibody, V domains shown)
VH: B8 VH with Q3H, K19R, G44A, A97T
VL: B8 VL with V51L, Y92H, K108T
notes: as for B5
ELISA O.D. (Pep4): 0.065 O.D.
ELISA O.D. (Pep5): 0.061 O.D.
ELISA O.D. (Pep6 [6]): 1.62 O.D.
ELISA O.D. (Pep3): 0.063 O.D.
ELISA O.D. [7]: 1.18 O.D.
% cells Positive [8]: 18.3%
% cells Positive [9]: 6.1%

B10: antibody 623 (antibody, V domains shown)
VH: B8 VH with Y94F
VL: B8 VL with V51L, S99Y, Y101S
notes: as for B5
ELISA O.D. (Pep4): 0.082 O.D.
ELISA O.D. (Pep5): 0.08 O.D.
ELISA O.D. (Pep6 [6]): 1.67 O.D.
ELISA O.D. (Pep3): 0.086 O.D.
ELISA O.D. [7]: 0.803 O.D.
% cells Positive [8]: 63.8%
% cells Positive [9]: 7%

B11: antibody 604 (antibody, V domains shown)
VH: QVQLQQPGAELVKPGASVKVSCKASGYNFINYWMHWVKQRPGQGLEWIGRIHPSDSYTNYNQKFKGKATLTVDKSSSTAYMQLSSLTSEDSAVYYCASPISTLYWGQGTTLTVSS
VL: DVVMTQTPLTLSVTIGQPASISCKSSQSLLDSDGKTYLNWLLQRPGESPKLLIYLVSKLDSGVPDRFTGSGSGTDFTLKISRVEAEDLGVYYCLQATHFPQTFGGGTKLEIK
notes: as for B5
ELISA O.D. (Pep4): 0.058 O.D.
ELISA O.D. (Pep5): 0.067 O.D.
ELISA O.D. (Pep6 [6]): 0.939 O.D.
ELISA O.D. (Pep3): 0.058 O.D.
ELISA O.D. [7]: 0.61 O.D.
% cells Positive [8]: 82.5%
% cells Positive [9]: 96%

The remaining lines, values ahead:

binding result [1]: binds
binding result (Peptide 2a [2]): binds
binding result (Pep6 [3]): binds
binding result [4]: binds
B1: antibody 2510 (antibody, human IgG1, V domains shown)
VH: QVQLHQPGTSLVKPGASVKLSCKASGYNFSSYYMHWVKQRPGQGLEWIGTIHPSDSTTNYNQKFKGKATLTVDKSSRTAYMQLNSLTFEDSAVYYCANFVYWGQGTSVTVSS
VL: DIVITQDELSNPVTSGDSVSISCRSSKSLLYKDGKTYLNWFLQRPGQSPQLLIYVVSTRASGVSDRFSGSGSGTDFTLEISRVKAEDVGVYYCQQLVEYPYTFGGGTKLEIK

binding result [1]: binds
binding result (Peptide 2a [2]): binds
binding result (Pep6 [3]): binds
binding result [5]: binds
B2: antibody 2610 (antibody, V domains shown)
VH: B1 VH with N28S, Y60C
VL: B1 VL

binding result [5]: binds
B3: antibody 2710 (antibody, V domains shown)
VH: B1 VH with N28T, Y60C
VL: B1 VL

binding result [4]: binds
B4: antibody 2910 (antibody, V domains shown)
VH: B1 VH with N28T
VL: B1 VL

ELISA O.D. (Pep4): 0.069 O.D.
ELISA O.D. (Pep5): 0.066 O.D.
ELISA O.D. (Pep6 [6]): 1.68 O.D.
ELISA O.D. (Pep3): 0.069 O.D.
ELISA O.D. [7]: 1.52 O.D.
% cells Positive [8]: 89.3%
% cells Positive [9]: 96.7%
B7: antibody 624 (antibody, V domains shown)
VH: B5 VH with L4V, A26G, Q39K, N77S, S84T, S91F, A97S
VL: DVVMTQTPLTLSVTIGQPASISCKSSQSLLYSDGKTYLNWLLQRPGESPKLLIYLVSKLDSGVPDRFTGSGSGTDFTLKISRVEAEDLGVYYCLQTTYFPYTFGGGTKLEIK
notes: Mouse hybridoma-derived; afucosylated form used for ADCC

binding result (Pep6 [10]): binds
binding result (Peptide 2a [11]): binds
B12: antibody 1409 (antibody, human IgG1, V domains shown)
VH: EVQLVESGGGLVQPKGSLKLSCAASGFTFNTYAMHWVRQAPGKGLEWVARIRSKSSNYATYYADSVKDRFTISRDDSQSMLYLQMNNLKTEDTAMYYCVRELRLRYAMDYWGQGTSVTVSS
VL: DILMTQTPLTLSVTIGQPASISCKSSQSLLYTNGKTYLNWLLQRPGQSPKRLIYLVSKLDSGVPDRFSGSGSGTDFTLKISRVEAEDLGVYYCLQSTHFPLTFGAGTKLELK
notes: Chimeric monoclonal antibody, murine variable regions and human IgG1
